# T1: KDM2A (human, UniProt Q9Y2K7 1-1162)
# T1 sequence (looked up): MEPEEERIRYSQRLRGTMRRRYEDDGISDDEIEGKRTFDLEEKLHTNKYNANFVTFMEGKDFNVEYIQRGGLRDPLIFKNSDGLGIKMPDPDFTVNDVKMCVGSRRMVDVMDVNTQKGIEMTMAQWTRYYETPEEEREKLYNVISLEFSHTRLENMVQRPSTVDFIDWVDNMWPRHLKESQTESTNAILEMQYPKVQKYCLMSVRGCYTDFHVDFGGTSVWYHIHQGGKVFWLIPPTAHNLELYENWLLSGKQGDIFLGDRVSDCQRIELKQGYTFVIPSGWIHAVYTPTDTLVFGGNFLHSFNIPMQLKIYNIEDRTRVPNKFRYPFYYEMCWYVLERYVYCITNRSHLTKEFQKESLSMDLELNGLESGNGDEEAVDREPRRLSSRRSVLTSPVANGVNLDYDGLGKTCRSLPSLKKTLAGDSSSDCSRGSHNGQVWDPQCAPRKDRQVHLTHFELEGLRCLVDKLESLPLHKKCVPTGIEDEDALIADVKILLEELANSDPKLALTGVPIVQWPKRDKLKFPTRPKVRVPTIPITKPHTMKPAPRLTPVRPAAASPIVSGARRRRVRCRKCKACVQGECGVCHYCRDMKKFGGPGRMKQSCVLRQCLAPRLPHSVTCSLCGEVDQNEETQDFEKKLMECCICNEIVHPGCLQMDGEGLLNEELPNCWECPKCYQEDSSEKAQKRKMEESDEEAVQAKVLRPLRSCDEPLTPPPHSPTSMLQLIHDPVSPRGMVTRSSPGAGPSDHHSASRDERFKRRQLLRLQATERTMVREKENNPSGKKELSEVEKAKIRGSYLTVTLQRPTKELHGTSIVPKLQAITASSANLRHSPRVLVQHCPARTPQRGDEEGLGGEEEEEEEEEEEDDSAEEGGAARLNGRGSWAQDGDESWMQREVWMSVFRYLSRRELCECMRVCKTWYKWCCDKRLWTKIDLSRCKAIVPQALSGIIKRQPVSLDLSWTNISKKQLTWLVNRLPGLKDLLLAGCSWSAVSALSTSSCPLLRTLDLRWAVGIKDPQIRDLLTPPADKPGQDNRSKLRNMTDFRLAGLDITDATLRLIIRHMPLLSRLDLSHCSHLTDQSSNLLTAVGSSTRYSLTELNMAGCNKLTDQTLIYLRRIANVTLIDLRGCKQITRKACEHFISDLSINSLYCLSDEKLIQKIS
# T2: KDM4B (human, UniProt O94953 1-1096)
# T2 sequence (looked up): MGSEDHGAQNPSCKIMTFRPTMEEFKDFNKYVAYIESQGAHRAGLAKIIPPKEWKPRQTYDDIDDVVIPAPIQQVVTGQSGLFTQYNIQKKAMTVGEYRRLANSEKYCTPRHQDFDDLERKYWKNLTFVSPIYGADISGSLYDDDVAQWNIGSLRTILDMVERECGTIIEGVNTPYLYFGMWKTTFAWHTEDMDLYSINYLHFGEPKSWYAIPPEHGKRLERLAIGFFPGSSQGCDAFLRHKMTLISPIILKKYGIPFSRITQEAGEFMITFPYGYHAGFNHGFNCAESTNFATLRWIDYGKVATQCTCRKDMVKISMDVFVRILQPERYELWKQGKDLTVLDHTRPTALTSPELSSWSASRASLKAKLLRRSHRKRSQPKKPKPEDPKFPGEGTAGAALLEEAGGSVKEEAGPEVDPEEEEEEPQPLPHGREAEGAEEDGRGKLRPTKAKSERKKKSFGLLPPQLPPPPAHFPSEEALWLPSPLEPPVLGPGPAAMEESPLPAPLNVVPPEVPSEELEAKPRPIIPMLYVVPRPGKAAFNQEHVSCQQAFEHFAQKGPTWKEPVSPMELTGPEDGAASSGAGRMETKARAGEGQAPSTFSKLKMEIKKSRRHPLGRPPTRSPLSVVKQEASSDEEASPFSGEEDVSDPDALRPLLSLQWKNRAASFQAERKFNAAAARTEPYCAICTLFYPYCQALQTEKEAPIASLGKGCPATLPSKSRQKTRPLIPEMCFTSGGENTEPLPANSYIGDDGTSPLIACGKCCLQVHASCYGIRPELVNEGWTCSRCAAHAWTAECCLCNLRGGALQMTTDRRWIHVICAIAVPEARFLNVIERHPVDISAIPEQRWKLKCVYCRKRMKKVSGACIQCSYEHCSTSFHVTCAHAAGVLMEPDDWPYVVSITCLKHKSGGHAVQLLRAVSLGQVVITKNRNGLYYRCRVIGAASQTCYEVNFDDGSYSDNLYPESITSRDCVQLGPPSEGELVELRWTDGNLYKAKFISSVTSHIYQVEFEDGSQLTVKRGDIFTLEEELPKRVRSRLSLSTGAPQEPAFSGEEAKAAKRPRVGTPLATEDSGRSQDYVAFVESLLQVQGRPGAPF
# Legend:
# Assay in all cases: cell-based or functional assay
# [1] = molecular target: T1, KDM2A
# [2] = molecular target: factor inhibiting HIF (UniProt Q9NWT6 1-349)
# factor inhibiting HIF, sequence (Q9NWT6 whole entry): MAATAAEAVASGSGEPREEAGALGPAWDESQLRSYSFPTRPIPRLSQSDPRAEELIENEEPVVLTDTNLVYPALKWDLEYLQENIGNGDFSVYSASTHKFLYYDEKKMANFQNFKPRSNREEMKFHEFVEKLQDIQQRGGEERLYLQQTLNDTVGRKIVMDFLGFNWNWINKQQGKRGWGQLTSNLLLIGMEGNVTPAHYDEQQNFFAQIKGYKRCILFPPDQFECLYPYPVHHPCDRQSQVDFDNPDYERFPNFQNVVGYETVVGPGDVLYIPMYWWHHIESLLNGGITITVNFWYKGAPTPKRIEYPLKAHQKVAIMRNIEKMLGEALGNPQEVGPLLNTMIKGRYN
# [3] = molecular target: T2, KDM4B
binder,measurement,setting,value
"YLKSRRSGLTWIPC (not fully specified; N-terminal L-Tyr (^LTyr library, N-chloroacetyl-L-Tyr) cyclised by a thioether to a downstream cysteine) [CP4]",IC50 of inhibition of demethylase activity (AlphaScreen activity assay),[1],> 10 µM
same,IC50 of inhibition of FIH (MALDI–TOF MS assay),[2],> 1000 µM
same,IC50 of inhibition of demethylase activity (AlphaScreen activity assay),[3],0.006 µM

# — article PMC5384220, “Highly selective inhibition of histone demethylases by de novo macrocyclic peptides” (Nature Communications, 2017)
